From PMC5919683, “Transcription factor HAT1 is a substrate of SnRK2.3 kinase and negatively regulates ABA synthesis and signaling in Arabidopsis responding to drought” (PLoS Genetics, 2018)

B1: ABA3 A1 WT probe (dsDNA)
DNA 1: ATATTTAATTTAATAATTATTGGTTTAAACAAAATT
DNA 2: AATTTTGTTTAAACCAATAATTATTAAATTAAATAT
B2: NCED3 N1 mutant probe (dsDNA)
DNA 1: AAACATTCGCTGGTCGTTGTTACTCTATTCTTCTAAA
DNA 2: TTTAGAAGAATAGAGTAACAACGACCAGCGAATGTTT
B3: MBP-HAT1 (natural protein, Arabidopsis thaliana, UniProt P46600 1-282, looked up)
chain: MMMGKEDLGLSLSLGFAQNHPLQLNLKPTSSPMSNLQMFPWNQTLVSSSDQQKQQFLRKIDVNSLPTTVDLEEETGVSSPNSTISSTVSGKRRSTEREGTSGGGCGDDLDITLDRSSSRGTSDEEEDYGGETCRKKLRLSKDQSAVLEDTFKEHNTLNPKQKLALAKKLGLTARQVEVWFQNRRARTKLKQTEVDCEYLKRCVEKLTEENRRLEKEAAELRALKLSPRLYGQMSPPTTLLMCPSCERVAGPSSSNHNQRSVSLSPWLQMAHGSTFDVMRPRS
notes: HAT1 of Arabidopsis thaliana; the HAT1 coding region amplified from Col-0 cDNA; The methods of the EMSA speak of recombinant proteins purified from E. coli; also called MBP-tagged HAT1; MBP-fusion HAT1 protein; source: recombinant (pETMALc-H vector), purified with amylose resin (NEB)
B4: ABA3 A1 mutant probe (dsDNA)
DNA 1: ATATTTAATTGCTGGTCGTTGGTTTAAACAAAATT
DNA 2: AATTTTGTTTAAACCAACGACCAGCAATTAAATAT
B5: NCED3 N1 WT probe (dsDNA)
DNA 1: AAAAATTCCAATTATTGTGTTACTCTATTCTTCTAAA
DNA 2: TTTAGAAGAATAGAGTAACACAATAATTGGAATTTTT

Tests used:
[1] = biological target: T1, MBP-HAT1 (Arabidopsis thaliana (Col-0), UniProt P46600 1-282); experiment: EMSA; EMSA: 25 mM HEPES-KOH pH 8.0, 50 mM KCl, 1 mM DTT, 10% glycerol, 20 uL, ~1 ng probe, 30 min on ice; 5% native PAGE, 1x TGE pH 8.7; details: protein: recombinant; tags: MBP (pETMALc-H); chain copies: 2
T1 sequence: B3 chain

[2] = biological target: T2, GST-SnRK2.2 (Arabidopsis thaliana, UniProt Q39192 1-362); experiment: pull-down; GST pull-down: GST or GST-SnRK2s as bait, MBP-tagged HAT1 or its domains detected by western blotting with anti-MBP antibody; details: both partners purified
T2 construct: SnRK2.2 of Arabidopsis; coding region inserted into pGEX-6P-1; also called GST-SnRK2s; source: recombinant (pGEX-6P-1 vector); purification told only for GST-SnRK2.3
T2 sequence (looked up): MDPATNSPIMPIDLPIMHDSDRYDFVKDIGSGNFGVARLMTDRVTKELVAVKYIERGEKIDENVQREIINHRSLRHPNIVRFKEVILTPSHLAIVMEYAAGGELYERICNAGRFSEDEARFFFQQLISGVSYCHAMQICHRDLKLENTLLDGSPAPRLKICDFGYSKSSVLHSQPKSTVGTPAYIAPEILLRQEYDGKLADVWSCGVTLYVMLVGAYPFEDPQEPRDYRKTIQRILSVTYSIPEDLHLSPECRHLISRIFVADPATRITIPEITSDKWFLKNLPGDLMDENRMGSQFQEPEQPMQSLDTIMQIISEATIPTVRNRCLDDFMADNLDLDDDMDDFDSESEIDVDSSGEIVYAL

[3] = biological target: T3, GST-SnRK2.3 (Arabidopsis thaliana, UniProt Q39193 1-361); experiment: as above; details: both partners purified
T3 construct: SnRK2.3 of Arabidopsis; coding region inserted into pGEX-6P-1; also called GST-SnRK2s; SnRK2.3 fused with GST; source: recombinant (pGEX-6P-1 vector), purified with glutathione beads (Sigma)
T3 sequence (looked up): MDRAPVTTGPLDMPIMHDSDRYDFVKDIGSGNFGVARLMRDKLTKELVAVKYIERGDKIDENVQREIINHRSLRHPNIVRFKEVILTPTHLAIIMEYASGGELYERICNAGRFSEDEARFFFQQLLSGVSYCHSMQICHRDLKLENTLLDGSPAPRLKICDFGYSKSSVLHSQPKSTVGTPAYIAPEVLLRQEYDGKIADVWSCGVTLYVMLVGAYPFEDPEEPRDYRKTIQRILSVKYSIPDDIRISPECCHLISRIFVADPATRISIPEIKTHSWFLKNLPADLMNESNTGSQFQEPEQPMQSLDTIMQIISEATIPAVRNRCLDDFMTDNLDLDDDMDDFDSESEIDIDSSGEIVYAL

[4] = biological target: T4, GST-SnRK2.6 (Arabidopsis thaliana, UniProt Q940H6 1-362); experiment: as above; details: both partners purified
T4 construct: SnRK2.6 of Arabidopsis; coding region inserted into pGEX-6P-1; also called GST-SnRK2s; source: recombinant (pGEX-6P-1 vector); purification told only for GST-SnRK2.3
T4 sequence (looked up): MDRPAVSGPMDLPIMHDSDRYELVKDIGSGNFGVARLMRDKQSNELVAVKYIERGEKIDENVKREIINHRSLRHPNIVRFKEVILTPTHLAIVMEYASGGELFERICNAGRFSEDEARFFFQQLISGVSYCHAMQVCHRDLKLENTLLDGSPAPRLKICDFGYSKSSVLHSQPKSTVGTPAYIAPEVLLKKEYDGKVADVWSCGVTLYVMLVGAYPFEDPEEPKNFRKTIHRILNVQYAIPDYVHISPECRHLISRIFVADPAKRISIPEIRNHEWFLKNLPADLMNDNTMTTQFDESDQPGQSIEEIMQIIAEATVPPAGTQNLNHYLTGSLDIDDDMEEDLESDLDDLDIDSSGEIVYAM

Binder	binding result [1]	binding result [2]	binding result [3]	binding result [4]
B1	binds			
B2	no binding			
B3		binds	binds	binds
B4	no binding			
B5	binds			
